Experiments:
[1] = target: Phosphorylated SARS-CoV-2 Nucleocapsid protein (pN), full length, phosphorylated in vitro with GSK-3β and SRPK1 (SARS-CoV-2) (UniProt P0DTC9); assay: […]; 20 mM Tris-HCl, 150 mM NaCl, pH 7.5, 37 °C
[2] = target: SARS-CoV-2 Nucleocapsid protein (N), full length, unmodified (SARS-CoV-2) (UniProt P0DTC9); assay: […]; 20 mM Tris-HCl, 150 mM NaCl, pH 7.5, 37 °C
[3] = target: non-structural protein 3 (Nsp3) ubiquitin-like domain 1 (Ubl1), 1-111
[4] = target: Membrane (M) protein C-terminal endodomain, 104-222 (UniProt P0DTC5)

Row | Substance | partition coefficient [1] | partition coefficient [2] | other: partition coefficient [3] | other: partition coefficient [4]
1 | 6xHis-GFP-M^104-222, C-terminal endodomain of the SARS-CoV-2 Membrane (M) protein (from UniProt P0DTC5 104-222) (domain or fragment) | 0.3 | 9.8 |  | 
2 | 6xHis-GFP-Nsp3^1-111, ubiquitin-like domain 1 (Ubl1) of SARS-CoV-2 non-structural protein 3 (Nsp3) (domain or fragment) | 2.2 | 12.6 |  | 
3 | Nucleocapsid protein (N) (from UniProt P0DTC9) |  |  | weaker; reference 12.6 ± 0.1 | lost; reference 9.8 ± 0.3

Reference: publication PMC12381204
